In experiment [1] the target is human GPC3 on cells (human) (UniProt P51654). Briefly: flow cytometry, JHH-7 cells; negative control.
For experiment [2], the target named is human glypican-3 (GPC3) (human) (UniProt P51654). Put plainly: cell-based or functional assay.
Experiment [3] deals with cynomolgus monkey glypican-3 (GPC3) (cynomolgus monkey). Briefly: flow cytometry on CHO-S cells transfected with cynomolgus GPC3.
For experiment [4], the target named is human glypican-3 (GPC3) (human) (UniProt P51654). Briefly: flow cytometry on CHO-S cells transfected with human GPC3. For orientation: A flow cytometer gives signals particle by particle.
Experiment [5] shares this target. Briefly: flow cytometry on JHH-5 cells (GPC3-mid).
Experiment [6] shares this target. Briefly: flow cytometry on JHH-7 cells; v21995 in PBS (not incubated in plasma), day 0.
Experiment [7] shares this target. Briefly: flow cytometry on JHH-7 cells (GPC3-high).

Take v22277 (palivizumab) (antibody): in experiment [1], the Kd (commonly the free concentration of one partner at which half of the binding sites on the other are occupied at equilibrium, for simple one-to-one binding) was over 0.06 µM.
For the substance palivizumab (anti-RSV antibody), v21995, in experiment [2], the JHH-5 Internalization (MFI) was determined as 399 MFI; the JHH-5 Internalization (MFI), Day 0 (in PBS) came to 506 MFI; the JHH-7 Internalization (MFI) worked out at 265 MFI; the JHH-7 Internalization (MFI), Day 0 (in PBS) is 4 MFI. This substance also returned an equilibrium dissociation constant (Kd) in experiment [3] of over 0.15 µM. Also, the dissociation constant Kd in experiment [4] was over 0.15 µM. The Kd in experiment [5] was over 0.15 µM. In experiment [6], this substance displayed a Bmax (MFI) of 309 MFI and a Kd of 0.0377 µM. In experiment [7], the Kd was over 0.047 µM.

For the origin of these results see patent US20250295799A1, “ANTIBODY-DRUG CONJUGATES TARGETING GLYPICAN-3 AND METHODS OF USE” (Zymeworks BC Inc., priority 2022, published 2025).
